Experimental findings from the MegaScale stability set (Tsuboyama et al. 2023) are described below.

First the molecules themselves.
B1: EHEE_rd2_0601 (parent)
chain: TYTYKLTDEEASRRAEDEWRNRGYDVRVRNNNGTWEVEVR

In this data set the parent is B1. Kind of data set: folding stability dG (cDNA display proteolysis); higher = more stable. The settings on record: PBS, room temperature.
In the case of TYTYKLTDEEASRRAEDEWRNRGYDVRMRNNNGTWEVEVR [V28M], the “folding stability dG” value stood at 0.531 kcal/mol. Turning to TYTYKLTDEEASRDAEDEWRNRGYDVRVRNNNGTWEVEVR [R14D], the “folding stability dG” value came out at 0.704 kcal/mol.

As to TYTYKLTDEEASRKAEDEWRNRGYDVRVRNNNGTWEVEVR [R14K], the “folding stability dG” value was 1.53 kcal/mol. For the variant TYTYKLTDEEASRHAEDEWRNRGYDVRVRNNNGTWEVEVR [R14H], the “folding stability dG” value was 1.22 kcal/mol. On to TYTYKLTDEEASRLAEDEWRNRGYDVRVRNNNGTWEVEVR [R14L], for which the “folding stability dG” value came to 1.33 kcal/mol. As to TYTYKLTDEEASRSAEDEWRNRGYDVRVRNNNGTWEVEVR [R14S], the “folding stability dG” value worked out at 0.898 kcal/mol. As to TYTYKLTDEEASRFAEDEWRNRGYDVRVRNNNGTWEVEVR [R14F], the “folding stability dG” value stood at 1.13 kcal/mol.

As for TYTYKLTDEEASRNAEDEWRNRGYDVRVRNNNGTWEVEVR [R14N], the “folding stability dG” value came to 1.04 kcal/mol.

TYTYKLTDEEASRRAEDEWRNRGYDVRVRNNGGTWEVEVR [N32G]: the “folding stability dG” value was determined as 1.39 kcal/mol. Take TYTYKLTDEEASRRAEDEWRNRGYDVRVRNNWGTWEVEVR [N32W]: the “folding stability dG” value is -0.071 kcal/mol.

As to TYTYKLTDEEISRRAEDEWRNRGYDVRVRNNNGTWEVEVR [A11I], the “folding stability dG” value was found to be 0.447 kcal/mol. To TYTYKLTDEEHSRRAEDEWRNRGYDVRVRNNNGTWEVEVR [A11H] belongs 0.875 kcal/mol. For the variant TYTYKLTDEEASRRAEDEWRNRMYDVRVRNNNGTWEVEVR [G23M], the “folding stability dG” value was -0.97 kcal/mol. On to TYTYKLTDEEASRRAEDEWRNRNYDVRVRNNNGTWEVEVR [G23N], for which the “folding stability dG” value is -0.169 kcal/mol. In the case of TYTYKLTDKEASRRAEDEWRNRGYDVRVRNNNGTWEVEVR [E9K] it was 0.834 kcal/mol; in that of TYTYKLTDEEASRRAEDEWRNRGYDVRVRNNNGTWETEVR [V37T], -0.63 kcal/mol.

On to TYTYKLTDEEASRRAEDEWRNRGYDVRVRNNNGTWEWEVR [V37W], for which the “folding stability dG” value was -0.973 kcal/mol.

For TYTYKLTDEEASRRAEDEWRNRGYDVRVRWNNGTWEVEVR [N30W], the “folding stability dG” value turned out to be 1.8 kcal/mol. TYTYKLTDEEASRRAEDEWRNRGYDVRVRPNNGTWEVEVR [N30P]: the “folding stability dG” value was 0.863 kcal/mol.

For TYTYKLTDEEASRRAEDEWRTRGYDVRVRNNNGTWEVEVR [N21T], the “folding stability dG” value was found to be 1.31 kcal/mol. As for TYTYKLTDEEASRRAEDEWRDRGYDVRVRNNNGTWEVEVR [N21D], the “folding stability dG” value is 1.16 kcal/mol. As to TYTYKLTDEEASRRAEDEWRRRGYDVRVRNNNGTWEVEVR [N21R], the “folding stability dG” value worked out at 1.96 kcal/mol.

Take TYTYKLTDEEASRRAEDEWRVRGYDVRVRNNNGTWEVEVR [N21V]: the “folding stability dG” value stood at 1.1 kcal/mol.

On to TYTYKLTDEEAGRRAEDEWRNRGYDVRVRNNNGTWEVEVR [S12G], for which the “folding stability dG” value came to 1.14 kcal/mol. As to TYTYKLTDEEAPRRAEDEWRNRGYDVRVRNNNGTWEVEVR [S12P], the “folding stability dG” value was -0.764 kcal/mol.

For TYTYKLTDEEAMRRAEDEWRNRGYDVRVRNNNGTWEVEVR [S12M], the “folding stability dG” value is 1.95 kcal/mol.

Turning to TYTYKLTDEEASRRAEDEWRNRGYDVRVRNNNGTWEVYVR [E38Y], the “folding stability dG” value worked out at 1.03 kcal/mol.

For the variant TYTYKLTDEEASRRAEDEWRNRGYDVRVRNNNGTWEVQVR [E38Q], the “folding stability dG” value is 1.2 kcal/mol. Regarding TYTYKLTDEEASRRAEDEWRNRGYDVRVRNNNGTWEVDVR [E38D], the “folding stability dG” value worked out at 0.701 kcal/mol.

On to TYTYLLTDEEASRRAEDEWRNRGYDVRVRNNNGTWEVEVR [K5L], for which the “folding stability dG” value amounted to 1.84 kcal/mol. In the case of TYTYHLTDEEASRRAEDEWRNRGYDVRVRNNNGTWEVEVR [K5H] it was 1.74 kcal/mol; in that of TYTYWLTDEEASRRAEDEWRNRGYDVRVRNNNGTWEVEVR [K5W], 1.83 kcal/mol. Consider TYTYKLTDEEASRRDEDEWRNRGYDVRVRNNNGTWEVEVR [A15D], for which the “folding stability dG” value was determined as 0.605 kcal/mol. For TYTYKLTDEEASRRQEDEWRNRGYDVRVRNNNGTWEVEVR [A15Q], the “folding stability dG” value was 0.788 kcal/mol. With TYTYKLTDEEASRRAEDEWRNRGYDVIVRNNNGTWEVEVR [R27I], the “folding stability dG” value was found to be 2.09 kcal/mol. For TYTYKLTDEEASRRAEDEWRNRGYDVAVRNNNGTWEVEVR [R27A], the “folding stability dG” value is 1.42 kcal/mol. Turning to TYTYKLTDEEASRRAEDEWRNRGYRVRVRNNNGTWEVEVR [D25R], the “folding stability dG” value is 1.23 kcal/mol. Regarding TYTYKLTDEEASRRAEDEWRNRGYIVRVRNNNGTWEVEVR [D25I], the “folding stability dG” value came out at 1.76 kcal/mol. In the case of TYTYKLTDEEASRRAEDVWRNRGYDVRVRNNNGTWEVEVR [E18V] it was 1.56 kcal/mol. Consider TYTYKLTDEEASRRAEDRWRNRGYDVRVRNNNGTWEVEVR [E18R], for which the “folding stability dG” value worked out at 1.31 kcal/mol. With TMTYKLTDEEASRRAEDEWRNRGYDVRVRNNNGTWEVEVR [Y2M], the “folding stability dG” value worked out at 1.46 kcal/mol. Consider TGTYKLTDEEASRRAEDEWRNRGYDVRVRNNNGTWEVEVR [Y2G], for which the “folding stability dG” value worked out at 0.413 kcal/mol. Regarding TTTYKLTDEEASRRAEDEWRNRGYDVRVRNNNGTWEVEVR [Y2T], the “folding stability dG” value was 1.38 kcal/mol.

Turning to TYTYKLTDEEASRRAEDEWRNRGYDVRVRNNNGTWEVEVY [R40Y], the “folding stability dG” value stood at 1.59 kcal/mol. In the case of RYTYKLTDEEASRRAEDEWRNRGYDVRVRNNNGTWEVEVR [T1R] it was 1.35 kcal/mol. For the variant HYTYKLTDEEASRRAEDEWRNRGYDVRVRNNNGTWEVEVR [T1H], the “folding stability dG” value amounted to 1.44 kcal/mol. In the case of PYTYKLTDEEASRRAEDEWRNRGYDVRVRNNNGTWEVEVR [T1P], the “folding stability dG” value amounted to 1.15 kcal/mol. For TYTYKLTEEEASRRAEDEWRNRGYDVRVRNNNGTWEVEVR [D8E], the “folding stability dG” value is 0.662 kcal/mol. As to TYTYKLTAEEASRRAEDEWRNRGYDVRVRNNNGTWEVEVR [D8A], the “folding stability dG” value worked out at 0.271 kcal/mol. TYTYKLTDEEASRRAEDEWRNRGYDVRVRNNNGTWWVEVR [E36W]: the “folding stability dG” value was 1.83 kcal/mol. In the case of TYTYKLTDEEASRRAEDEWRNRGYDVRVRNNNGTWHVEVR [E36H], the “folding stability dG” value was determined as 0.826 kcal/mol.

Take TYTYKLTDEMASRRAEDEWRNRGYDVRVRNNNGTWEVEVR [E10M]: the “folding stability dG” value is 1.41 kcal/mol. Take TYTYKLTDEPASRRAEDEWRNRGYDVRVRNNNGTWEVEVR [E10P]: the “folding stability dG” value is 1.02 kcal/mol.

For TYTYKLTDEEASRRAEDEWRNWGYDVRVRNNNGTWEVEVR [R22W], the “folding stability dG” value is 0.762 kcal/mol. Take TYTYKLNDEEASRRAEDEWRNRGYDVRVRNNNGTWEVEVR [T7N]: the “folding stability dG” value turned out to be 1.62 kcal/mol. On to TYVYKLTDEEASRRAEDEWRNRGYDVRVRNNNGTWEVEVR [T3V], for which the “folding stability dG” value stood at 1.82 kcal/mol.

As for TYDYKLTDEEASRRAEDEWRNRGYDVRVRNNNGTWEVEVR [T3D], the “folding stability dG” value stood at 0.044 kcal/mol.

As to TYNYKLTDEEASRRAEDEWRNRGYDVRVRNNNGTWEVEVR [T3N], the “folding stability dG” value was found to be 0.532 kcal/mol. For the variant TYTYKLTDEEASRRAEDEWRNRGYDVRVRNNNHTWEVEVR [G33H], the “folding stability dG” value is -0.011 kcal/mol. With TYTYKLTDEEASRRAEDEWRNRGYDVRVRNNNVTWEVEVR [G33V], the “folding stability dG” value is -0.925 kcal/mol. Turning to TYTYKLTDEEASRRAEDEWRNRGYDVRVRNNNWTWEVEVR [G33W], the “folding stability dG” value was -0.61 kcal/mol. In the case of TYTYKLTDEEASRRAEDEWRNRGYDVRVRNNNSTWEVEVR [G33S] it was 0.025 kcal/mol. In the case of TYTYKLTDEEASRRAEDEWRNRGYDVRVRNNNQTWEVEVR [G33Q] it was 0.157 kcal/mol.
